Test results reported in the Immune Epitope Database (IEDB).

What was measured:
HLA-B*18:01 = experiment: IEDB peptide-MHC binding, purified MHC/direct/fluorescence; filed as Kd, often an IC50 or EC50 that approximates it; ≥ and ≤ were set here for values at or beyond the usual limits of such assays
HLA-B*15:01 [1] = experiment: as above
HLA-A*68:02 = experiment: as above
HLA-B*46:01 = experiment: as above; conditions: source organism: Brucella suis 1330
HLA-A*66:01 [2] = experiment: as above; conditions: source organism: Brucella suis 1330
HLA-A*29:02 = experiment: as above; conditions: source organism: Brucella suis 1330
HLA-B*51:01 = experiment: as above; conditions: source organism: Brucella suis 1330
HLA-A*03:01 = experiment: as above
HLA-B*57:01 = experiment: as above
HLA-B*27:03 = experiment: as above; conditions: source organism: Brucella suis 1330
HLA-B*45:06 = experiment: IEDB peptide-MHC binding, purified MHC/competitive/fluorescence; filed as Kd, often an IC50 or EC50 that approximates it; ≥ and ≤ were set here for values at or beyond the usual limits of such assays; conditions: source organism: Brucella canis ATCC 23365
HLA-B*08:01 = experiment: as above
HLA-A*68:23 = experiment: as above; conditions: source organism: Brucella canis ATCC 23365
HLA-A*01:01 [3] = experiment: as above
HLA-A*23:01 = experiment: as above
HLA-B*15:42 = experiment: as above; conditions: source organism: Brucella canis ATCC 23365
HLA-A*30:01 = experiment: as above
HLA-B*53:01 = experiment: as above
HLA-B*39:01 [4] = experiment: as above; conditions: source organism: Brucella canis ATCC 23365
HLA-B*14:02 = experiment: as above
HLA-B*83:01 = experiment: as above; conditions: source organism: Brucella canis ATCC 23365
HLA-B*44:02 = experiment: as above
HLA-A*11:01 [5] = experiment: as above
HLA-A*30:02 [6] = experiment: as above
HLA-B*07:02 [7] = experiment: as above
HLA-B*40:01 = experiment: as above
HLA-A*24:03 = experiment: as above; conditions: source organism: Brucella canis ATCC 23365
HLA-B*58:01 [8] = experiment: as above
HLA-A*80:01 = experiment: IEDB peptide-MHC binding, purified MHC/direct/fluorescence; filed as Kd, often an IC50 or EC50 that approximates it; ≥ and ≤ were set here for values at or beyond the usual limits of such assays; conditions: source organism: Dengue virus 1 Singapore/S275/1990
HLA-A*30:02 [9] = experiment: IEDB peptide-MHC binding, purified MHC/competitive/radioactivity; filed as Kd, often an IC50 or EC50 that approximates it; ≥ and ≤ were set here for values at or beyond the usual limits of such assays; conditions: source organism: Dengue virus 1 Brazil/97-11/1997
HLA-B*58:01 [10] = experiment: as above; conditions: source organism: Dengue virus 1 Brazil/97-11/1997
HLA-A*02:01 = experiment: IEDB peptide-MHC binding, purified MHC/direct/fluorescence; filed as Kd, often an IC50 or EC50 that approximates it; ≥ and ≤ were set here for values at or beyond the usual limits of such assays; conditions: source organism: Bacillus anthracis
HLA-B*15:17 = experiment: as above; conditions: source organism: Bacillus anthracis
HLA-B*48:01 = experiment: as above; conditions: source organism: Bacillus anthracis
HLA-A*26:02 = experiment: as above; conditions: source organism: Bacillus cereus H3081.97
HLA-A*01:01 [11] = experiment: as above; conditions: source organism: Bacillus anthracis
HLA-A*69:01 = experiment: as above; conditions: source organism: Bacillus anthracis
HLA-B*39:01 [12] = experiment: as above; conditions: source organism: Bacillus cereus H3081.97
HLA-B*27:05 [13] = experiment: as above; conditions: source organism: Bacillus anthracis
HLA-A*31:01 = experiment: as above; conditions: source organism: Bacillus anthracis
HLA-B*73:01 = experiment: as above; conditions: source organism: Bacillus anthracis
HLA-A*26:03 = experiment: as above; conditions: source organism: Bacillus cereus H3081.97
HLA-A*11:01 [14] = experiment: as above; conditions: source organism: Bacillus anthracis
HLA-B*07:02 [15] = experiment: as above; conditions: source organism: Bacillus anthracis
HLA-B*58:01 [16] = experiment: as above; conditions: source organism: Bacillus anthracis
HLA-B*15:01 [17] = experiment: IEDB peptide-MHC binding, purified MHC/competitive/fluorescence; filed as Kd, often an IC50 or EC50 that approximates it; ≥ and ≤ were set here for values at or beyond the usual limits of such assays; conditions: source organism: Escherichia coli 536
HLA-A*66:01 [18] = experiment: as above; conditions: source organism: Escherichia coli 536
HLA-B*27:05 [19] = experiment: as above; conditions: source organism: Escherichia coli 536
[20] = source organism: Brucella suis 1330
[21] = source organism: Brucella canis ATCC 23365
[22] = source organism: Bacillus anthracis
[23] = source organism: Escherichia coli 536

**Q.** How did the Kd (HLA-B*18:01; [20]) turn out when ETVWPFFYA was run?
**A.** ≥ 20 µM

**Q.** And the Kd (HLA-B*15:01 [1]; [20])?
**A.** ≥ 20 µM

**Q.** What about the Kd (HLA-A*68:02; [20]) of the same sequence?
**A.** ≤ 0.001 µM

**Q.** And the Kd (HLA-B*46:01)?
**A.** ≥ 20 µM

**Q.** What about the Kd (HLA-A*66:01 [2]) of the same sequence?
**A.** 0.101 µM

**Q.** What about the Kd (HLA-A*29:02) of the same sequence?
**A.** ≥ 20 µM

**Q.** What about the Kd (HLA-B*51:01) of the same sequence?
**A.** ≥ 20 µM

**Q.** What about the Kd (HLA-A*03:01; [20]) of the same sequence?
**A.** ≥ 20 µM

**Q.** What about the Kd (HLA-B*57:01; [20]) of the same sequence?
**A.** ≥ 20 µM

**Q.** And the Kd (HLA-B*27:03)?
**A.** ≥ 20 µM

**Q.** What about the Kd (HLA-B*45:06) of the same sequence?
**A.** ≥ 5 µM

**Q.** And the Kd (HLA-B*08:01; [21])?
**A.** ≥ 5 µM

**Q.** And the Kd (HLA-A*68:23)?
**A.** 0.0013 µM

**Q.** What about the Kd (HLA-A*01:01 [3]; [21]) of the same sequence?
**A.** ≥ 5 µM

**Q.** What about the Kd (HLA-A*23:01; [21]) of the same sequence?
**A.** ≥ 5 µM

**Q.** And the Kd (HLA-B*15:42)?
**A.** ≥ 5 µM

**Q.** What about the Kd (HLA-A*30:01; [21]) of the same sequence?
**A.** ≥ 5 µM

**Q.** What about the Kd (HLA-B*53:01; [21]) of the same sequence?
**A.** ≥ 5 µM

**Q.** What about the Kd (HLA-B*39:01 [4]) of the same sequence?
**A.** ≥ 5 µM

**Q.** What about the Kd (HLA-B*14:02; [21]) of the same sequence?
**A.** ≥ 5 µM

**Q.** What about the Kd (HLA-B*83:01) of the same sequence?
**A.** ≥ 5 µM

**Q.** What about the Kd (HLA-B*44:02; [21]) of the same sequence?
**A.** ≥ 5 µM

**Q.** What about the Kd (HLA-A*11:01 [5]; [21]) of the same sequence?
**A.** ≥ 5 µM

**Q.** And the Kd (HLA-A*30:02 [6]; [21])?
**A.** ≥ 5 µM

**Q.** And the Kd (HLA-B*07:02 [7]; [21])?
**A.** ≥ 5 µM

**Q.** And the Kd (HLA-B*40:01; [21])?
**A.** ≥ 5 µM

**Q.** What about the Kd (HLA-A*24:03) of the same sequence?
**A.** ≥ 5 µM

**Q.** What about the Kd (HLA-B*58:01 [8]; [21]) of the same sequence?
**A.** ≥ 5 µM

**Q.** How did the Kd (HLA-A*80:01) turn out when KSAAIDGEY was run?
**A.** 0.0441 µM

**Q.** What about the Kd (HLA-A*30:02 [9]) of the same sequence?
**A.** 0.703 µM

**Q.** And the Kd (HLA-B*58:01 [10])?
**A.** 0.00658 µM

**Q.** Which results are given for PRFGSCYFL?
**A.** Kd (HLA-A*02:01): ≥ 20 µM; Kd (HLA-B*15:17): ≥ 20 µM; Kd (HLA-B*48:01): ≥ 20 µM; Kd (HLA-B*18:01; [22]): ≥ 20 µM; Kd (HLA-B*15:01 [1]; [22]): ≥ 20 µM; Kd (HLA-A*68:02; [22]): ≥ 20 µM; Kd (HLA-A*26:02): ≥ 20 µM; Kd (HLA-A*01:01 [11]): ≥ 20 µM; Kd (HLA-A*69:01): ≥ 20 µM; Kd (HLA-B*39:01 [12]): ≥ 20 µM; Kd (HLA-B*27:05 [13]): ≥ 20 µM; Kd (HLA-A*31:01): ≥ 20 µM; Kd (HLA-B*73:01): ≥ 20 µM; Kd (HLA-A*26:03): ≥ 20 µM; Kd (HLA-A*11:01 [14]): ≥ 20 µM; Kd (HLA-A*03:01; [22]): ≥ 20 µM; Kd (HLA-B*07:02 [15]): 2.72 µM; Kd (HLA-B*57:01; [22]): ≥ 20 µM; Kd (HLA-B*58:01 [16]): ≥ 20 µM

**Q.** Which results are given for YQAENSTAE?
**A.** Kd (HLA-B*08:01; [23]): ≥ 5 µM; Kd (HLA-B*15:01 [17]): ≥ 5 µM; Kd (HLA-A*01:01 [3]; [23]): ≥ 5 µM; Kd (HLA-A*23:01; [23]): ≥ 5 µM; Kd (HLA-A*30:01; [23]): ≥ 5 µM; Kd (HLA-B*53:01; [23]): ≥ 5 µM; Kd (HLA-B*14:02; [23]): ≥ 5 µM; Kd (HLA-A*66:01 [18]): ≥ 5 µM; Kd (HLA-B*44:02; [23]): ≥ 5 µM; Kd (HLA-B*27:05 [19]): ≥ 5 µM; Kd (HLA-A*11:01 [5]; [23]): ≥ 5 µM; Kd (HLA-A*30:02 [6]; [23]): ≥ 5 µM; Kd (HLA-B*07:02 [7]; [23]): ≥ 5 µM; Kd (HLA-B*40:01; [23]): ≥ 5 µM; Kd (HLA-B*58:01 [8]; [23]): ≥ 5 µM
